Reference: the RNAGym collection of RNA variant scans (doi:10.1101/gr.219683.116)

B1: mRNA-splicing (parent)
chain: AGUUGCUGCUGGGAGCUCCAGCACAGUGAAAUGGACAGAAGGGCAGAGCAA

Variants of: B1
Assay: exon inclusion enrichment index; higher = more inclusion; WT1 exon 5 minigene, HEK293

Variant | exon inclusion enrichment index
AGUUCACACAGGGAGCUCCUGCACAGUGAAAUGGACAGAAGGGCAGAGCAA [G5C C6A U7C G8A U10A A20U] | 0.199
AGUUCACACAGGGAGCUCCGGCACAGUGAAAUGGACAGAAGGGCAGAGCAA [G5C C6A U7C G8A U10A A20G] | 0.306
AGUUCACACAGGGAGCUCCCGCACAGUGAAAUGGACAGAAGGGCAGAGCAA [G5C C6A U7C G8A U10A A20C] | 0.142
AGUUCACACAGGGAGCUCCUACACAGUGAAAUGGACAGAAGGGCAGAGCAA [G5C C6A U7C G8A U10A A20U G21A] | 0.0323
AGUUCACACAGGGAGCUCCUCCACAGUGAAAUGGACAGAAGGGCAGAGCAA [G5C C6A U7C G8A U10A A20U G21C] | 0.0942
AGUUCACACAGGGAGCUCCUUCACAGUGAAAUGGACAGAAGGGCAGAGCAA [G5C C6A U7C G8A U10A A20U G21U] | 0.037
AGUUCACACAGGGAGCUCCAGCCGAGUGAAAUGGACAGAAGGGCAGAGCAA [G5C C6A U7C G8A U10A A23C C24G] | 0.664
AGUUCACACAGGGAGCUCCAGCCUAGUGAAAUGGACAGAAGGGCAGAGCAA [G5C C6A U7C G8A U10A A23C C24U] | 0.0196
AGUUCACACAGGGAGCUCCAGCCAAGUGAAAUGGACAGAAGGGCAGAGCAA [G5C C6A U7C G8A U10A A23C C24A] | 0.209
AGUUCACACAGGGAGCUCCGUCACAGUGAAAUGGACAGAAGGGCAGAGCAA [G5C C6A U7C G8A U10A A20G G21U] | 0.177
AGUUCACACAGGGAGCUCCGCCACAGUGAAAUGGACAGAAGGGCAGAGCAA [G5C C6A U7C G8A U10A A20G G21C] | 0.164
AGUUCACACAGGGAGCUCCGACACAGUGAAAUGGACAGAAGGGCAGAGCAA [G5C C6A U7C G8A U10A A20G G21A] | 0.186
AGUUCACACAGGGAGCUCCAGCGCAGUGAAAUGGACAGAAGGGCAGAGCAA [G5C C6A U7C G8A U10A A23G] | 0.287
AGUUCACACAGGGAGCUCCAGCUCAGUGAAAUGGACAGAAGGGCAGAGCAA [G5C C6A U7C G8A U10A A23U] | 0.0425
AGUUCACACAGGGAGCUCCAGCCCAGUGAAAUGGACAGAAGGGCAGAGCAA [G5C C6A U7C G8A U10A A23C] | 0.0903
AGUUCACACAGGGAGCUCCCACACAGUGAAAUGGACAGAAGGGCAGAGCAA [G5C C6A U7C G8A U10A A20C G21A] | 0.0158
AGUUCACACAGGGAGCUCCCUCACAGUGAAAUGGACAGAAGGGCAGAGCAA [G5C C6A U7C G8A U10A A20C G21U] | 0.0192
AGUUCACACAGGGAGCUCCCCCACAGUGAAAUGGACAGAAGGGCAGAGCAA [G5C C6A U7C G8A U10A A20C G21C] | 0.00894
AGUUCACACAGGGAGCUCCAGCACAGUGUCAUGGACAGAAGGGCAGAGCAA [G5C C6A U7C G8A U10A A29U A30C] | 0.0766
AGUUCACACAGGGAGCUCCAGCACAGUGUUAUGGACAGAAGGGCAGAGCAA [G5C C6A U7C G8A U10A A29U A30U] | 0.0185
AGUUCACACAGGGAGCUCCAGCACAGUGUGAUGGACAGAAGGGCAGAGCAA [G5C C6A U7C G8A U10A A29U A30G] | 0.125
AGUUCACACAGGGAGCUCCAGCACAGUGACAUGGACAGAAGGGCAGAGCAA [G5C C6A U7C G8A U10A A30C] | 0.0836
AGUUCACACAGGGAGCUCCAGCGAAGUGAAAUGGACAGAAGGGCAGAGCAA [G5C C6A U7C G8A U10A A23G C24A] | 0.48
AGUUCACACAGGGAGCUCCAGCGUAGUGAAAUGGACAGAAGGGCAGAGCAA [G5C C6A U7C G8A U10A A23G C24U] | 0.0154
AGUUCACACAGGGAGCUCCAGCGGAGUGAAAUGGACAGAAGGGCAGAGCAA [G5C C6A U7C G8A U10A A23G C24G] | 0.559
AGUUCACACAGGGAGCUCCAGCACUCUGAAAUGGACAGAAGGGCAGAGCAA [G5C C6A U7C G8A U10A A25U G26C] | 0.181

Variant | exon inclusion enrichment index
AGUUCACACAGGGAGCUCCAGCACUAUGAAAUGGACAGAAGGGCAGAGCAA [G5C C6A U7C G8A U10A A25U G26A] | 0.172
AGUUCACACAGGGAGCUCCAGCACUUUGAAAUGGACAGAAGGGCAGAGCAA [G5C C6A U7C G8A U10A A25U G26U] | 0.111
AGUUCACACAGGGAGCUCCAGCACAGUGUAAUGGACAGAAGGGCAGAGCAA [G5C C6A U7C G8A U10A A29U] | 0.035
AGUUCACACAGGGAGCUCCAGCACAGUGGAAUGGACAGAAGGGCAGAGCAA [G5C C6A U7C G8A U10A A29G] | 0.202
AGUUCACACAGGGAGCUCCAGCACAGUGCAAUGGACAGAAGGGCAGAGCAA [G5C C6A U7C G8A U10A A29C] | 0.0911
AGUUCACACAGGGAGCUCCAGCACGAUGAAAUGGACAGAAGGGCAGAGCAA [G5C C6A U7C G8A U10A A25G G26A] | 0.663
AGUUCACACAGGGAGCUCCAGCACGCUGAAAUGGACAGAAGGGCAGAGCAA [G5C C6A U7C G8A U10A A25G G26C] | 0.647
AGUUCACACAGGGAGCUCCAGCACGUUGAAAUGGACAGAAGGGCAGAGCAA [G5C C6A U7C G8A U10A A25G G26U] | 0.306
AGUUCACACAGGGUUCUCCAGCACAGUGAAAUGGACAGAAGGGCAGAGCAA [G5C C6A U7C G8A U10A A14U G15U] | 0.0233
AGUUCACACAGGGAGCUCCAGCACAGUGCGAUGGACAGAAGGGCAGAGCAA [G5C C6A U7C G8A U10A A29C A30G] | 0.291
AGUUCACACAGGGAGCUCCAGCACAGUGCCAUGGACAGAAGGGCAGAGCAA [G5C C6A U7C G8A U10A A29C A30C] | 0.217
AGUUCACACAGGGAGCUCCAGCACAGUGCUAUGGACAGAAGGGCAGAGCAA [G5C C6A U7C G8A U10A A29C A30U] | 0.0384
AGUUCACACAGGGAGCUCCAGCACCGUGAAAUGGACAGAAGGGCAGAGCAA [G5C C6A U7C G8A U10A A25C] | 0.77
AGUUCACACAGGGAGCUCCAGCACGGUGAAAUGGACAGAAGGGCAGAGCAA [G5C C6A U7C G8A U10A A25G] | 0.601
AGUUCACACAGGGAGCUCCAGCACUGUGAAAUGGACAGAAGGGCAGAGCAA [G5C C6A U7C G8A U10A A25U] | 0.205
AGUUCACACAGGGAGCUCCAGCACAGUGGCAUGGACAGAAGGGCAGAGCAA [G5C C6A U7C G8A U10A A29G A30C] | 0.0319
AGUUCACACAGGGAGCUCCAGCACAGUGGGAUGGACAGAAGGGCAGAGCAA [G5C C6A U7C G8A U10A A29G A30G] | 0.0879
AGUUCACACAGGGAGCUCCAGCACAGUGGUAUGGACAGAAGGGCAGAGCAA [G5C C6A U7C G8A U10A A29G A30U] | 0.0104
AGUUCACACAGGGAGCUCCAGCACAGUGACCUGGACAGAAGGGCAGAGCAA [G5C C6A U7C G8A U10A A30C A31C] | 0.314
AGUUCACACAGGGAGCUCCAGCACCAUGAAAUGGACAGAAGGGCAGAGCAA [G5C C6A U7C G8A U10A A25C G26A] | 0.352
AGUUCACACAGGGAGCUCCAGCACCUUGAAAUGGACAGAAGGGCAGAGCAA [G5C C6A U7C G8A U10A A25C G26U] | 0.241
AGUUCACACAGGGAGCUCCAGCACCCUGAAAUGGACAGAAGGGCAGAGCAA [G5C C6A U7C G8A U10A A25C G26C] | 0.037
AGUUCACACAGGGAGCUCCAGCUUAGUGAAAUGGACAGAAGGGCAGAGCAA [G5C C6A U7C G8A U10A A23U C24U] | 0.00309
AGUUCACACAGGGAGCUCCAGCUGAGUGAAAUGGACAGAAGGGCAGAGCAA [G5C C6A U7C G8A U10A A23U C24G] | 0.159
AGUUCACACAGGGAGCUCCAGCUAAGUGAAAUGGACAGAAGGGCAGAGCAA [G5C C6A U7C G8A U10A A23U C24A] | 0.0357
